Two proteins from publication PMC9820243, “Structural and Functional Characterization of a New Bacterial Dipeptidyl Peptidase III Involved in Fruiting Body Formation in Myxobacteria” (International Journal of Molecular Sciences, 2022) can be followed below.

Series [1] concerns the molecule itself. Nature of the series: SEC; HiLoad 16/600 Superdex 200 pg, 20 mM Tris-HCl (pH 7.0) with 0.1 M NaCl, 1 mL/min; mass standards ovalbumin, conalbumin, aldolase, ferritin. (In general: In gel filtration, larger molecules generally elute earlier.)
Series [2] deals with the molecule itself. Nature of the series: crystal structure; Se-Met-labelled protein, sitting-drop vapor diffusion at 20 °C, 0.1 M sodium acetate trihydrate pH 4.59, 24% w/v PEG 3350, 0.01 M TCEP; SAD, 1.90 Å; ligand-free, two molecules in the asymmetric unit.

B1: Dipeptidyl peptidase III from Corallococcus sp. EGB (recombinant CoDPP III) (enzyme, UniProt A0A5H1ZR28 1-537, looked up)
chain: RLPDAPTLKRMTARFAPVDVKVDVSKLPDAEKRALAKILQAAKIMDPLFLSQAWAGNPTLLLDLVEDTTPLGKERLHAFLLNKGPWSRLDEAKPFIPGVPPKPDEGNFYPAGATKAEVEAWVKSLPEAQQHAATGFFTTVRKGPDGKFLTVPYSVEYQGELGMAAKLLREAAALTQQSTLKRFLETRAEAFLSNDYYASEVAWMELDASVEPTIGPYEVYEDGWFNYKAAFEAFIGVRDEAETQKLAKFSAELQELENNLPIEPALRNPKLGALAPIRVINSLYSSGDGNRGVQTAAYNLPNDERVAAEKGTKRVMLKNIQEAKFQRVLVPIAKVALPAKDRKDVSFDAFFTHILMHELMHGLGPHNVTVAGKQTTVRQALQASSSAIEEAKADISGLWALQRLVDKGTLDKELQRTMYTTFLASAFRSIRFGIDEAHGKGIALQLNHFLDTGAVKVNADGTFEVVPDKMQASVTSLTNQLMSLQAKGDRAAAEELLAKQGVVRPSVQKVLEKLKNVPVDIEPRYVTAESLVKDFGA
notes: signal peptide in the construct; dipeptidyl peptidase III (CoDPP III) of Corallococcus sp; EGB, open reading frame of 1719 bp encoding 572 amino acids, predicted signal peptide residues 1 to 22; cloned into Nde I and Xho I sites of pET29a(+); The Xho I site of pET29a probably adds Leu-Glu before the His6 tag (surmised); also called native DPP III; source: E. coli BL21(DE3), purified (CM-Sepharose …)
Take B1: the “stoichiometry N” value in series [1] is 2.

B2: Selenomethionine-labelled dipeptidyl peptidase III from Corallococcus sp. EGB (enzyme, UniProt A0A5H1ZR28 1-537, looked up)
chain: B1 chain
modifications: selenomethionine (Se-Met labelled)
notes: signal peptide in the construct; dipeptidyl peptidase III (CoDPP III) of Corallococcus sp; EGB, same pET29a-Codpp III construct as m1 (572 amino acids, predicted signal peptide residues 1 to 22); the final model lacks 27 amino acids at the N-terminus and 8 (chain A) or 12 (chain B) at the C-terminus; Same construct as m1, expressed in a methionine auxotroph with Se-Met; also called Se-CoDPPIII; …
With B2, the binding result in series [2] is reported as “binds”.

As usually defined, the stoichiometry N is a count of units in the complex or per binding partner.
